The text below walks through data of patent US20130316374A1, “BREAST CANCER DIAGNOSTICS” (IMBA - INSTITUT FUR MOLEKULARE BIOTECHNOLOGIE GMBH, priority 2010, published 2013).

Assay [1] concerns RANKL. In words: RANKL expression in purified mammary epithelial cells (qRT-PCR, Western blot). In kind it is in vivo, mouse. The conditions noted are these: nulliparous wild type females, 3 days after implantation/oral gavage. As for the experimental part:
a,b, MPA induces RANKL expression in mammary epithelial cells. Nulliparous wild type females were treated with oral gavage of DMBA or oil vehicle, s.c. implanted with slow-release MPA pellets, or treated with sham surgery. a, RANKL mRNA was determined in purified mammary epithelial cells by qRT-PCR 3 days after implantation/oral gavage. Data are shown as fold change compared to sham treatment+/−sem. n=3 mice per group. b, Expression of soluble (s) RANKL protein (19 kDa) was assayed on cell lysates from purified mammary epithelial cells by Western blot 3 days after treatment with oil vehicle, DMBA, MPA, or sham surgery. β-actin is shown as a loading control. […] Data are shown as percentage of tumor-free mice after the last DMBA challenge. No significant difference was found between the Cre+ and the Cre− control groups. Median tumor onset for Cre^+ controls was 9 days, for Cre^− controls 11 days, and for RANK^Δmam females 30 days after the last DMBA treatment. d, Representative Southern blot of MPA/DMBA-induced mammary tumors derived from RANK^flox/+; MMTV-Cre+ and RANK^flox/Δ; MMTV-Cre+ (RANK^Δmam) females. […]
Total RNA of tumors was prepared using the RNeasy Mini Kit (Qiagen), according to the manufacturer's instructions. Total RNA (2 μg) was subjected to quantitative (q)RT-PCR analysis. […]
A general note: Real-time PCR tracks product formation cycle by cycle.

The subject of assay [2] is SKBR3 breast cancer cells. In words: Growth curve of SKBR3 breast cancer cells. In kind it is cell-based, human. The conditions noted are these: RANKL (1 μg/ml), 3 days. As for the experimental part: a, Western blotting for phosphorylated (P) p65 NFκB, total p65 NFκB, phosphorylated (P) IκBα, total IκBα, phosphorylated (P) ERK1/2, total ERK1/2, phosphorylated (P) p38-MAPK, and p38-MAPK in human SKBR3 breast cancer cells in response to RANKL stimulation (1 μg/ml). Data are representative of 3 experiments. b, Growth curve of SKBR3 breast cancer cells cultured in normal growth medium (control, DMEM supplemented with 10% FCS) or in the presence of RANKL (1 μg/ml). Cell numbers were determined by counting live cells (trypan blue-exclusion) over 3 days. c, Onset of palpable mammary tumors in NFATc1^Δmam (n=10) and age matched littermate control (n=16) females treated with MPA pellets and DMBA. Data are shown as percentage of tumor free mice after the last DMBA challenge. No significant difference was found. d, Quantification of NFATc1 mRNA expression in purified mammary epithelial cells (MECs) and MPA-driven mammary tumors from NFATc1^Δmam and littermate control females. mRNA was determined by qRT-PCR. Data are shown as fold change compared to control (+/−sem). n=5 Per group. *P<0.05 (Student's t-test).

Assay [3] relates to primary mouse mammary epithelial cells. In words: DNA damage responses (cell cycle arrest, apoptosis) in primary mouse mammary epithelial cells. In kind it is cell-based. The conditions noted are these: RANKL 1 μg/ml. As for the experimental part:
a, Western Blot analysis for γH2AX, phosphorylated (P) Chk1, total Chk1, p53 and β-actin in isolated primary mouse mammary gland epithelial cells in response to γ-irradiation (2 Gray) in the presence (1 μg/ml) or absence of RANKL stimulation. b,c, FACS analysis of propidium iodide (PI) stained b, mammary epithelial cells and c, SKBR3 human breast cancer cells after γ-irradiation (2 Gray) in the absence or presence (1 μg/ml) of RANKL. Data are representative of at least 3 experiments. Apoptotic cells with a DNA content <2n appear in the sub-G1 region. Percent of cells in sub-G1 (M1), G1-phase (M2), S/G2/M-phase (M3) as well as polyploid cells with a DNA content >4n are given for the indicated time points.
a,b, FACS analysis of a, mammary epithelial cells and b, SKBR3 human breast cancer cells incubated with the genotoxic agent doxorubicin (Dox, 1 μM) in the presence (1 μg/ml) or absence of RANKL. Data are representative of at least 3 experiments. Percent of cells in sub-G1 (M1), G1-phase (M2), S/G2/M-phase (M3) as well as polyploid cells with a DNA content >4n are given for 24 and 36 hours after doxorubicin treatment. c, mRNA expression of pro-apoptotic genes Bim, Puma, and Noxa 6 hours after γ-irradiation (2 Gray) in the presence (1 μg/ml) or absence of RANKL stimulation. Data are shown as fold change compared to control (+/−sem). n=3). *P<0.05; **P<0.005 (Student's t-test).
For measurement of cell cycle arrest and apoptosis primary mouse mammary epithelial cells and SKBR3 human breast cancer cells were seeded at a cell-density of 100000 cells/well in a 6-well plate and allowed to grow for 24 hours. Cells where then treated with doxorubicin (1 μM) or γ-irradiation (2 Gray) in the absence or presence of recombinant RANKL (1 μg/ml). Cell cycle arrest and numbers of dead cells were determined using propidium iodine staining. To determine in vivo mammary gland epithelial cell death, control and RANK^Δmam littermate females were γ-irradiated with a total dose of 5 Gray (Gy). Six hours later, mammary glands were isolated and immunostained for active Caspase 3 (Cell Signaling) indicative of apoptosis.

Regarding `CC(=O)O[C@]1(C(C)=O)CC[C@H]2[C@@H]3C[C@H](C)C4=CC(=O)CC[C@]4(C)[C@H]3CC[C@@]21C` [MPA, medroxyprogesterone acetate], the “RANKL mRNA and protein expression in mammary epithelial cells” value in assay [1] was “induced RANKL mRNA and protein expression”.

B1: RANKL: Receptor Activator of NF-κB Ligand; recombinant murine RANKL used for stimulation (protein, UniProt O35235 139-316, looked up)
Tumor necrosis factor ligand …: FSGAPAMMEGSWLDVAQRGKPEAQPFAHLTINAASIPSGSHKVTLSSWYHDRGWAKISNMTLSNGKLRVNQDGFYYLYANICFRHHETSGSVPTDYLQLMVYVVKTSIKIPSSHNLMKGGSTKNWSGNSEFHFYSINVGGFFKLRAGEEISIQVSNPSLLDPDQDATYFGAFKVQDID
On to B1, for which the “proliferation of SKBR3 cells” value in assay [2] is listed as “induced”. Moreover, in assay [3] (6 hours after γ-irradiation (2 Gray)), the “γ-irradiation-induced upregulation of Bim, Puma, and Noxa mRNA” value is recorded as “did not occur”. Further, in assay [3] (doxorubicin (1 μM)), the “cell death after DNA damage” value is “marked protection from cell death” and the “early cell cycle arrest after DNA damage” value was “did not alter”. Moreover, in assay [3] (γ-irradiation (2 Gray)), the “cell death after DNA damage” value is on record as “marked protection from cell death”; the “early cell cycle arrest after DNA damage” value is “did not alter”; the “induction of γH2AX and p53 or activation of Chk1” value is on record as “did not alter”.
